From patent US6416738

Experiments:
[1] = biological target: NR-LU-10 antigen (approximately 40 kilodalton glycoprotein antigen expressed on most carcinomas) (human) (UniProt P16422); assay: limiting antigen ELISA, percent of native NR-LU-10
[2] = biological target: Biotinylated NR-LU-10 (thiol); assay: cell-based or functional assay
[3] = biological target: Biotinylated NR-LU-10 (lysine); assay: cell-based or functional assay
Streptavidin = Streptavidin (UniProt P22629); assay: 20 ug radiolabeled protein with 400 ul streptavidin-agarose beads, spun and washed, counted
Sequence of Streptavidin (P22629 37-163 limits assumed): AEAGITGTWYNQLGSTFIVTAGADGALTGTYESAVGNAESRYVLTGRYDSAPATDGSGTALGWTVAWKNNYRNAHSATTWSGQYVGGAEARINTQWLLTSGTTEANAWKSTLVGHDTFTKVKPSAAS

[4] = biological target: NR-LU-10 antigen on LS-180 tumor cells (human) (UniProt P16422); assay: binding to LS-180 tumor cells at antigen excess, percent of native NR-LU-10
Sequence of NR-LU-10 antigen on LS-180 tumor cells (human) (P16422 24-314): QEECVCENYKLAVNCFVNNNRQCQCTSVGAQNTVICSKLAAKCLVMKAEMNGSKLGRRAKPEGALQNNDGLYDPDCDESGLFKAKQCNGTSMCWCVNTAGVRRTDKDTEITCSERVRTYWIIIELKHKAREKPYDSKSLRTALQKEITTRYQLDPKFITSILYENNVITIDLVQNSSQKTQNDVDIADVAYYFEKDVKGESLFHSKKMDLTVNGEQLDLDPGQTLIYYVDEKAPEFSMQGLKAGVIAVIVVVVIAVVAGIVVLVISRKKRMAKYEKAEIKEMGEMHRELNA

Avidin [5] = biological target: Avidin (UniProt P02701); assay: binding of radioiodinated biotinylated antibody to avidin-agarose
Sequence of Avidin (P02701 25-152 limits assumed): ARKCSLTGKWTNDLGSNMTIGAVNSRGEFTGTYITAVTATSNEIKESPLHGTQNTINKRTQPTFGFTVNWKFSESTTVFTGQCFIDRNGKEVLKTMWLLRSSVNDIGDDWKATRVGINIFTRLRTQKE

Avidin [6] = biological target: Avidin (UniProt P02701); assay: residual circulating radiolabeled antibody after avidin injection in mice, examined in vitro on immobilized biotin
[7] = biological target: NR-LU-10 antigen (approximately 40 kilodalton glycoprotein antigen expressed on most carcinomas) (human) (UniProt P16422); assay: ELISA, percent of native NR-LU-10 (thiol biotinylation)
[8] = biological target: NR-LU-10 antigen on LS-180 tumor cells (human) (UniProt P16422); assay: cell binding, percent of native NR-LU-10 (LS-180 cells as described for Table 2)

Sequence of NR-LU-10 antigen (approximately 40 kilodalton glycoprotein antigen expressed on most carcinomas) (human) (P16422 24-314): as the sequence (P16422 24-314) above

Q: Which Immunoassessment (%) ELISA, immunoreactivity as compared to native antibody [1] does the source give for “Biotinylated NR-LU-10 (lysine), molar offering 40:1, measured 23.1 biotins/Ab (antibody)” here?
A: Its Immunoassessment (%) ELISA, immunoreactivity as compared to native antibody is 27%.

Q: Which Immunoassessment (%) ELISA, immunoreactivity as compared to native antibody [1] does the source give for “Biotinylated NR-LU-10 (lysine), molar offering 5:1, measured 3.4 biotins/Ab (antibody)” here?
A: The Immunoassessment (%) ELISA, immunoreactivity as compared to native antibody was 86%.

Q: Which circulating antibody level in mice after avidin administration (% of injected dose) [2] does the source give for Avidin (from UniProt P02701 25-152) here?
A: The circulating antibody level in mice after avidin administration (% of injected dose) was 35.

Q: What about the blood pool concentration of biotinylated antibody in mice after avidin administration [3] of the same substance?
A: Its blood pool concentration of biotinylated antibody in mice after avidin administration is 10 fold.

Q: For “Biotinylated human orosomucoid, PIP-125-labeled (from UniProt P02763 19-201)”, which % radioactivity in Pellet (bound to streptavidin-agarose) (Streptavidin) is on record?
A: The % radioactivity in Pellet (bound to streptavidin-agarose) was 92%.

Q: And the % radioactivity in Supernatant (not bound to streptavidin-agarose) (Streptavidin)?
A: The % radioactivity in Supernatant (not bound to streptavidin-agarose) was 7.7%.

Q: With “Biotinylated NR-LU-10 (lysine), molar offering 10:1, measured 8.5 biotins/Ab (antibody)” as the substance, how does the Immunoassessment (%) Cell Binding [4] read?
A: The Immunoassessment (%) Cell Binding was 100%.

Q: And the Immunoassessment (%) ELISA, immunoreactivity as compared to native antibody [1]?
A: Its Immunoassessment (%) ELISA, immunoreactivity as compared to native antibody is 73%.

Q: How did the Immunoassessment (%) Cell Binding [4] turn out when “Biotinylated NR-LU-10 (lysine), molar offering 13:1, measured 11.1 biotins/Ab (antibody)” was run?
A: Its Immunoassessment (%) Cell Binding is 102%.

Q: And the Immunoassessment (%) ELISA, immunoreactivity as compared to native antibody [1]?
A: Its Immunoassessment (%) ELISA, immunoreactivity as compared to native antibody is 69%.

Q: Which % specific binding to immobilized avidin-agarose (Avidin [5]) does the source give for “Biotinylated NR-LU-10 (thiol) (antibody)” here?
A: Its % specific binding to immobilized avidin-agarose is 98%.

Q: And the % of biotinylated antibody complexed with avidin (Avidin [6])?
A: The % of biotinylated antibody complexed with avidin was 85%.

Q: For “Biotinylated human asialoorosomucoid (from UniProt P02763 19-201)”, which % radioactivity in Pellet (bound to streptavidin-agarose) (Streptavidin) is on record?
A: The % radioactivity in Pellet (bound to streptavidin-agarose) was 90%.

Q: What about the % radioactivity in Supernatant (not bound to streptavidin-agarose) (Streptavidin) of the same substance?
A: The % radioactivity in Supernatant (not bound to streptavidin-agarose) was 10%.

Q: Which Immunoassessment (%) ELISA, immunoreactivity as compared to native antibody [7] does the source give for “Biotinylated NR-LU-10 (thiol), molar offering 100:1, measured 6.1 biotins/Ab (antibody)” here?
A: The Immunoassessment (%) ELISA, immunoreactivity as compared to native antibody was 95%.

Q: And the Immunoassessment (%) Cell Binding [8]?
A: Its Immunoassessment (%) Cell Binding is 100%.

Q: For “Biotinylated NR-LU-10 (thiol), molar offering 10:1, measured 4.7 biotins/Ab (antibody)”, which Immunoassessment (%) ELISA, immunoreactivity as compared to native antibody [7] is on record?
A: Its Immunoassessment (%) ELISA, immunoreactivity as compared to native antibody is 114%.

Q: How did the % specific binding to immobilized avidin-agarose (Avidin [5]) turn out when “Biotinylated NR-LU-10 (lysine) (antibody)” was run?
A: Its % specific binding to immobilized avidin-agarose is 98%.

Q: “Biotinylated NR-LU-10 (lysine), molar offering 20:1, measured 13.4 biotins/Ab (antibody)” was tested. Which Immunoassessment (%) Cell Binding [4] did it give?
A: Its Immunoassessment (%) Cell Binding is 106%.

Q: What about the Immunoassessment (%) ELISA, immunoreactivity as compared to native antibody [1] of the same substance?
A: Its Immunoassessment (%) ELISA, immunoreactivity as compared to native antibody is 36%.

Q: Which Immunoassessment (%) ELISA, immunoreactivity as compared to native antibody [7] does the source give for “Biotinylated NR-LU-10 (thiol), molar offering 50:1, measured 6.5 biotins/Ab (antibody)” here?
A: Its Immunoassessment (%) ELISA, immunoreactivity as compared to native antibody is 102%.

Q: What about the Immunoassessment (%) Cell Binding [8] of the same substance?
A: The Immunoassessment (%) Cell Binding was 100%.
